The text below walks through data of the supplement of paper PMC12042874.

± gives the uncertainty stated by the source.

This series can be described thus: amyloid nucleation score (Sup35N fusion, yeast selection) (log enrichment); library NNK3; higher = more nucleation; inactive = no reads after selection. Summed up: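 Sup35N was fused to peptides of 20 random codons and expressed in psi-negative yeast, which were induced with 100 μM copper sulfate for 24 hours and then grown on medium lacking adenine and uracil for 7 days at 30°C. Plasmid inserts from input and output were sequenced on Illumina. The nucleation score is the DiMSum log enrichment of output over input reads, centred on the mode score of non-aggregating sequences. Sequences with under 100 input reads were left out, and random libraries had three technical output replicates.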
SLCLYNSFLSSL: the amyloid nucleation score entry is “inactive”.
Consider SLCRRWVNLDTGSPYGTL, for which the amyloid nucleation score result was “inactive”.
For SLDCARNFRFGQTVFCCVGY, the amyloid nucleation score was 1.21 ± 0.18.
The result for SLDFSSGDVKNLKCCNVLMK reads “inactive”.
The result for SLDLALNMFFFLYAGSNFFF reads “inactive”; that for SLEIEK, “inactive”; that for SLGLKIVVLESYGVSPVCCH, “inactive”.
Next, SLGSCFSTCAVVHQRMKLGG: “inactive”; SLGTIMFVCGGPRGHLCSVR: -0.414 ± 1.4; SLIGNSDSPWFLRQTCTYTK: “inactive”.
For the substance SLKLRCLLGTSKVVMVDLFV, the amyloid nucleation score result was “inactive”.
Consider SLLCNHFPGHI, for which the amyloid nucleation score result was “inactive”.
Next, SLLGSRNRRSGWTQFVKLVW: “inactive”; SLLMYCRNTVSMSNNLSRHR: 1.39 ± 0.11; SLLSIFVKGARLQISDVSQG: 0.773 ± 0.18.
Next, SLMDNVLSFHFVVANWNTLD: “inactive”.
As to SLMSSRSCVTRTLLARQVYL, the amyloid nucleation score result is “inactive”.
The result for SLNCDGSSDGRCAAYQIWLC reads “inactive”; that for SLNLEENLSFHGVCRMYFNE, “inactive”.
As for SLNLWGLRSKVPDVWRMLMR, the amyloid nucleation score entry is “inactive”.
The result for SLPACKSGVKNTYVLYLTWN reads 1.19 ± 0.11; that for SLPGSKYKAFH, “inactive”; that for SLRDVVV, “inactive”.
The result for SLRYGREIKNMRQNCIDPWC reads “inactive”; that for SLSSWLWVVLIVHCMSGRNS, “inactive”.
On to SLTGLVILMAYRDPPGLAQF, for which the amyloid nucleation score came out at 1.46 ± 0.13.
For SLTYGRRWLFDWRSTMKGKA, the amyloid nucleation score result was “inactive”.
Next, SLWIIERCILDHQYGSFRRQ: 1.65 ± 0.1.
As for SLYHSLSGYHFCISMLL, the amyloid nucleation score entry was “inactive”.
SLYRSEVMVHAVVVYVYFGK: the amyloid nucleation score entry is “inactive”.
Turning to SLYWSAMRKYNVVRTIYSRW, the amyloid nucleation score entry is “inactive”.
Turning to SMCDMYYLVACTPHMIVQLY, the amyloid nucleation score was -0.111 ± 0.69.
The result for SMDTE reads 0.734 ± 0.17.
The result for SMFNGNLSRSMWFWRVRVTP reads “inactive”; that for SMGTFNMVRLSGTWGMSAMY, 0.757 ± 0.15.
Next, SMSGWCVETFLRQEM: “inactive”; SMSIYPVCLTF: “inactive”; SMSSTSYIGSSLVMIARNKF: “inactive”.
As to SMSWRSHEAMCTGSYFNLCD, the amyloid nucleation score result is “inactive”.
SMYIIMVCSSVSCWYFNRGH registered an amyloid nucleation score of 0.94 ± 0.18.
Substance SNACCGWAICCSPCGGKGVS yielded an amyloid nucleation score of 1.45 ± 0.13.
Next, SNAKWGNISVGSRDYRTIRS: 1.48 ± 0.083; SNANKCGRMFEMKYRHNLCL: “inactive”; SNCNPEWQLLIMIDCYNYAL: “inactive”.
Next, SNCTLRE: “inactive”; SNDVKNVHP: “inactive”; SNFINVGSRLMTSWRGYAYM: “inactive”.
Next, SNGCKMYDKHVLYW: “inactive”; SNIVFVPRSLQRREDGRRMD: “inactive”.
For the substance SNLRMRKNGVVDDIWPDERL, the amyloid nucleation score is -0.802 ± 1.3.
Next, SNLVDGMSWHHFKERIVMLD: “inactive”; SNRGYTKRYF: “inactive”; SNSHWIYWYTNPGQHRPSHR: “inactive”.
Next, SNSSYWRICRLETCNPVGYK: “inactive”; SNVSVHGMIESMLWLSTRDI: “inactive”.
As for SNWECLGGHENGINCRDI, the amyloid nucleation score result is “inactive”.
Next, SNYSV: “inactive”; SPALQMWKACTWLNRTLSPV: 0.582 ± 0.15; SPDTVPIGGSSGTNVYLCMH: “inactive”.
On to SPEPSVNRKHLVPLLPAAFE, for which the amyloid nucleation score entry is “inactive”.
The result for SPFFYFFWPGFR reads “inactive”; that for SPKAVSCNTFPIGYRISFFL, “inactive”; that for SPRAFTASVEGVSEL, “inactive”.
On to SPRNMWI, for which the amyloid nucleation score result is “inactive”.
Next, SPYNPHAFVTYSFCVYKD: 1.88 ± 0.098; SQKGCRH: “inactive”.
As for SQPDCFNICDLHGRSSCVSK, the amyloid nucleation score result is “inactive”.
Next, SQWWNVDPRSTQCASGAMRC: “inactive”.
With SRCNIFGRPSASIAR, the amyloid nucleation score entry was “inactive”.
The result for SRCNVYKKVVAYVLRRLTPE reads 0.166 ± 0.66; that for SRCWVYRKRTPCNVY, “inactive”.
The result for SRFKMICSRDRLNNRSVVLG reads “inactive”.
With SRFRFMGNVRQFLQPYRRLH, the amyloid nucleation score stood at 0.347 ± 0.2.
Take SRFRGAI: the amyloid nucleation score result was “inactive”.
Regarding SRFYTL, the amyloid nucleation score entry was “inactive”.
Regarding SRNVGFGINSQQGLFFRVVV, the amyloid nucleation score entry is “inactive”.
SRNYLVSPIDAPEQQSCVEE: the amyloid nucleation score entry was “inactive”.
Next, SRPLEMVLLLSWWIMSRKIP: “inactive”; SRQPRCALVVDVPP: “inactive”; SRRFTLPGGSMFTEVLM: “inactive”.
The result for SRRYFYIDIRYRNIKP reads “inactive”; that for SRSIMSVLACHRMCERGPIW, 0.827 ± 0.19; that for SRSINCFPMLILLVL, “inactive”.
The result for SRSLIRINWFRGKKLCYGFE reads “inactive”.
With SRSLWTLNIVFRHDCYTGKL, the amyloid nucleation score is -0.05 ± 0.57.
The result for SRSNQNCLPSASMNVYLSVT reads “inactive”; that for SRTYKHKALAQFPYKYWCVP, “inactive”; that for SRVNFM, “inactive”.
Take SSDNIVSGWWALSNKSATFV: the amyloid nucleation score entry is “inactive”.
As for SSDTGRCIKVDALRCRMGSR, the amyloid nucleation score entry is “inactive”.
In the case of SSFLKQLLGSVVNSVNVATV, the amyloid nucleation score result was “inactive”.
The result for SSFNIPMPSNYPKMIDLLFT reads “inactive”.
Take SSGKFIVLGRNAWTLAWTLT: the amyloid nucleation score entry is “inactive”.
In turn, SSGLFLSISLNDGWSRGVWS displayed an amyloid nucleation score of 2.77 ± 0.076.
With SSGPIRLERMDYWHHWGATL, the amyloid nucleation score result is “inactive”.
Turning to SSGRSSPQWG, the amyloid nucleation score result is “inactive”.
As for SSGYAFTGKVFYC, the amyloid nucleation score entry was “inactive”.
On to SSIAMHCILIVFLKGLCVFR, for which the amyloid nucleation score result is “inactive”.
As to SSIDEIGSFV, the amyloid nucleation score entry was “inactive”.
The result for SSIGVGSFCSVRCLYDHDTS reads “inactive”; that for SSIHH, “inactive”; that for SSITRGLHVRKTSVSTLGV, “inactive”.
The result for SSIWSGMSLFGFREIMSYVI reads “inactive”; that for SSKLFL, “inactive”; that for SSKSWLRYRVDEHTVSTFGF, “inactive”.
Regarding SSLCYTHRACTCNFTKVDSF, the amyloid nucleation score result is “inactive”.
Next, SSLGSETRFSYKRVHIENWR: -0.97 ± 0.9; SSLLANRYVWLDKLRHWHWR: “inactive”.
As to SSMAVQRGGNYITMIYGH, the amyloid nucleation score entry is “inactive”.
With SSPYDCSVNYLKNVSPRTLY, the amyloid nucleation score result is “inactive”.
As for SSQFTHEETGFCDVVPVVCG, the amyloid nucleation score result was “inactive”.
For the substance SSRRYS, the amyloid nucleation score entry was “inactive”.
As for SSRVVAWLSFNGSIICLFTF, the amyloid nucleation score entry was “inactive”.
Take SSSSMFALLPICY: the amyloid nucleation score result is “inactive”.
The result for SSSTANYLSIKFSLSLLKYN reads 0.905 ± 0.14.
Substance SSSVRMRCSCISLASNKCAY returned an amyloid nucleation score of 1.26 ± 0.12.
Next, SSTCTDL: “inactive”.
Consider SSTNSYTSSLVSVSLVGDGA, for which the amyloid nucleation score entry was “inactive”.
Take SSTRIMNISVSRWSEMDKPD: the amyloid nucleation score result is “inactive”.
As for SSVEHWPQNVFNRYFLYGVY, the amyloid nucleation score entry is “inactive”.
Consider SSVSFQLEVCNQNVLYGIKI, for which the amyloid nucleation score result was “inactive”.
Next, SSWPN: “inactive”; SSYAYMRVCAFKVVEMVYWR: “inactive”.
With SSYFYHNVILPTHIYNFSVI, the amyloid nucleation score was 2.27 ± 0.08.
Consider SSYLGECVKRPDPPRISKTL, for which the amyloid nucleation score result is “inactive”.
For the substance SSYSVVFEQ, the amyloid nucleation score entry is “inactive”.
Take SSYVQFYLGWLGRYCNGSYV: the amyloid nucleation score entry is “inactive”.
The substance STAWALAIAAVDRNFDSGWW had an amyloid nucleation score of 0.009 ± 1.1.
As for STGRRPTWATQRLWLWRQQL, the amyloid nucleation score was -0.091 ± 0.87.
The result for STKPFSYYCLRYHRTVTALL reads “inactive”.
